According to patent publication US20110269161:

How the values were obtained:
[1] = system: peptide H5 (EYDRLYEEYTPFR), derived from Phosphatidylinositol 3-kinase regulatory subunit p85α(Tyr-467)/p55γ(Tyr-199)
[2] = system: T1, peptide C2 (IPTGTTPQRKPFR), derived from kinesin-like protein kif11 (Thr927)
T1 sequence: IPTGTTPQRKPFR

[3] = system: seven peptides sharing a common motif of [S/T]-Pro and clear upregulation by G2/M arrest
[4] = system: T2, peptide B11 (LKLSPSPSSRPFR), derived from lamin-b1 (Ser392)
T2 sequence: LKLSPSPSSRPFR

[5] = system: T3, peptide A6 (RPGPQSPGSPPFR), derived from neutrophil cytosol factor 1
T3 sequence: RPGPQSPGSPPFR

[6] = system: T4, peptide F6 (RIRTQSFSLQPFR), derived from nitric-oxide synthase, endothelial (Ser1176)
T4 sequence: RIRTQSFSLQPFR

[7] = system: T5, peptide C6 (TKRSGSVYEPPFR), derived from phosphorylase b kinase regulatory subunit beta (Ser26)
T5 sequence: TKRSGSVYEPPFR

“Src (full length), purified human active kinase” was tested, and the “in vitro kinase reaction with purified kinase” value [1] was “robust phosphorylation by Src but not EGFR”.

In the case of “Cdc2/cyclin B1 (full length), purified complex”, the “phosphorylation by purified kinase complex (KAYAK profiling of 90 peptides)” value [2] is reported as “purified Cdc2/Cyclin B1 complex phosphorylated all 7 peptides along with 4 other up-regulated peptides”, the “phosphorylation by purified kinase complex (KAYAK profiling of 90 peptides)” value [3] is reported as “purified Cdc2/Cyclin B1 complex phosphorylated all 7 peptides along with 4 other up-regulated peptides” and the “phosphorylation by purified kinase complex (KAYAK profiling of 90 peptides)” value [4] is reported as “purified Cdc2/Cyclin B1 complex phosphorylated all 7 peptides along with 4 other up-regulated peptides”. The “phosphorylation by purified kinase complex (KAYAK profiling of 90 peptides)” value [5] was “purified Cdc2/Cyclin B1 complex phosphorylated all 7 peptides along with 4 other up-regulated peptides”.

With “Akt1 (full length), purified human active kinase” the “peptide phosphorylation, 100 µM peptide reacted individually” value [6] was “both RSK and Akt demonstrated strong phosphorylation” and the “in vitro peptide phosphorylation by purified kinase (KAYAK, LC-MS)” value [7] was “this peptide was not significantly phosphorylated by Akt”.
